Data: the nanobody polyreactivity screen of Harvey et al. (2022)

Assay: yeast display, Sf9 membrane polyspecificity reagent, FACS + sequencing; frameworks hold sequencing errors
How it was run: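 Synthetic nanobody libraries on Saccharomyces cerevisiae BJ5465 were galactose-induced for 36–48 hours, stained 1 hour at 4 °C with 10% biotinylated, detergent-solubilized Sf9 membrane reagent and enriched on streptavidin microbeads. FACS then separated cells into low and high (top ~1%) gates by anti-HA (expression) and streptavidin (reagent binding) fluorescence. Genes were colony-PCR amplified, MiSeq 2 × 250 sequenced and CDR-length filtered. A clone's polyreactivity label is that of its gate of origin.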

Row | Sequence | polyreactivity (PSR sort gate)
1 | QVQLVESGGGLVQAGGSLRLSCAASGSTFVGYAMGWYRQAPGKERELVAAISERGGRTYYADSVKGRFTISRDNAKNTVYLQMNSLKPEDTAVYYCAAYGRYPRLYTYYYWGQGTQVTVSS | high polyreactivity
2 | QVQLVESGGGLVQAGGSLRLSCVASGRIIPGNAMGGYRQAPGKESELVAAISYGGGSTYYADSVKGRFTISRDNAKNTVYLQMNSLKPADTAVYYCAAASSGEYGYWGQGTQVTVSS | low polyreactivity
3 | QVQLVESGGGLVQAGGSLRLSCAASGRIFSNNVMGWYIQAPGKERELVATISTDGRTNYADSVKGRFTISRDNAQNTVYLQMNSLKPEDTAVYFCAATGVTILLSSKSDYWGQGTQVTVSS | low polyreactivity
4 | QVQLVESGGGLVQAGGSLRLSCAASGSTFYYYTMGWYRQAPGKERELVAISWDGDSTYYADSVKGRFTISRDNAKNTVYLQMNSLKPEDTAVYYCAAADYYLPDDVSDYVDANFDYWGQGTQVTVSS | low polyreactivity
5 | QVQLVESGGGLVQAGGSLRLSCAASGRIFGTYAMGWYRQAPGKERELVDAISSSGTSTYYADSVKGRFTISRDNAKTTVYLQMNSLPPEDTAVYYCAVEAIDYAYAYYFRLGYDYWGQGTQVTVSS | low polyreactivity
6 | QVQLVESGGGLVQAGGSLRLSCAASGSTFGYYAMGWYRQAPGKERELVAAISASGSRTYYADSVKGRFTISRDNAKNTVYSQMNSQKPEDTAVYYCPALQYRRKIPTAYAGDYWGQGTQVTVSS | high polyreactivity
7 | QVQLVESGGGLDQAGGSLRLSCAASGRTFWAPYTMGWYRQAPWKERELVAAISKSTTRTYYADSVKGRFTISRDNAKNTVYLQMTSLKPEDTAVYYCAVDSLYASRWVDYWGQGTQVTVSS | high polyreactivity
8 | QVQLVESGGGLVQAGGSIRLTCAASGRIFYLNAMGWYRQAPGKEREMGAAITWSGGRTYYADSVKGRFTISRDNAKNTVYLQMNSLKPEDTAVYYCAAVPRPGPNTVLTPYGYWGQGTQVTVSS | high polyreactivity
9 | QVQHVESGGGLVQAGGSLRLSCAASGNIFAVYAKGWYRQAPGKERELVAAITTGTNTYADSVKGRFTISRDNAKNTVYLQMNSLKPEDTAVYYCAARYYRPLDYWGQGTQLTVSS | low polyreactivity
10 | QVQLVESGGGLVQAGGSLRLSCAASGSIFVPYAMGWYRQAPGKEREFVAAMYSGGGNTYYADSVKGRFTISRDNAKNTVYLQMNSLKREDTAVYYCAAAYVYSSWSRYDYWGQGTQVTVSS | high polyreactivity
11 | QDQLVESGGGLVQAGCSLRLSCAASGRTFKDYAMGWYRQAPGKERELVAAITYRDRTYYADSVKGRFTISRDNAKNTVYLQMNSLNTEDTAVYYCNAEGFSGMDYWGKGTQVTVSS | low polyreactivity
12 | QVQLVESGGGLVQAGGSLRLSCAASGSTFADNAMGWYRQAPGKERELVATITDGGSTNYADSVKGRFTISRDNAKNTVYLQMNSLKPEDTAVYYCNADTHARWTGVKGTYSDYDYWGQGTQVTVSS | low polyreactivity
13 | QVQLVESGGGLVQAGGSLRLSCAASGSTFSRNAMGWYRQAPGKERELVATISWRGGSTYYADSVKGRFTISRDNAKNTVYLQMNSLKPEDTAVYYCATLHRPAYYYWGQGTQVTVSS | high polyreactivity
14 | QVQLVESGGGLVQAGGSLRLTCAASGRTFASNDMGWYRQAPGKEMELVADINNGARTYYADSVKGRFTISRDNAKNTVYLQMNSLKPEDTAVYYCAARRYGKQVRLYGYWGQGTQVTVSS | high polyreactivity
15 | QVQLVESGGGLVQAGGSLRLSCAASGRIFRVNAMGWYRQAPGKERELVATITGSGGSTYYADSVKGRFTISRDNAKNTVHLQMNSLKPEDTAVYYCAVDRGRGSTYKYDYWGQGTQVTVSS | low polyreactivity
16 | QVQLVESGGGLVQAGGSLRLSCAASGSTLTDYAMGWYRQAPGKERELVAAITSDGDSTNYADSVKGRFTISRDNAKNTVYLQMNSLKPEDTAVYYCAAQGKYHYYVPAYEYWGQGTQVTVSS | low polyreactivity

Row | Sequence | polyreactivity (PSR sort gate)
17 | QVQLVESGGGLVQAGGSLRLSCAASGRIFFYYAMGWYRQAPGKERELVAAISNSGGGTYYADSVKGRFTISRDNAKNTVYLQMNSLKPEDTAVYYCAREAGRYAYKYYWWQRPDYDYWGQGTQVTVSS | low polyreactivity
18 | QVQLVESGGGLVQAGGSLRLSCAASGSTIVYNAMGWYRQAPGKEREFVAAISWSGGSTYYADSVKGRFTISRDNAKNTVYLQMNSLKPEDTAIYYCAATSRSNGFRYYYWGQGTQVTVSS | high polyreactivity
19 | QVNLVESGGGLVQAGGSLRLSCAASGSIFSKNAMGWYRQAPGRERELVAAITSGASTNYADSVKGRFTISRDNAKNTVYLQMNSLKPEDTAVYYCASKRNGFWYGYWGQGTHVTVSS | low polyreactivity
20 | QVQLVESGGGLVHAGGSLRLSCAASGMTFTKNVMGWYRQSPGKERELVAVISRSGGSTYYADSVKGRFTISRDNAKNTVYLQMNSLKPEDTAVYYCNVKGPGPSRGNYWGQGTQVTVSS | low polyreactivity
21 | QVQLVESGGGLVQAGGSLRLSCAASGRIFIPYAMGWYRQAPGKERELVAAISSSGGSTYYADSVKGRFTISRDTAKNTVYLQMNSLKPEDTAVYYCAARLYWGYAYETYSSLFEYDYWGQGTQVTVSS | low polyreactivity
22 | QVQLEESGGRLVQAGGSLRLSCAASGRIFNYYAMGWYRQAPGQERELVAAISNGGSTYYADSVKGRFTISRDNAKNTVYLQMNSLKPEDTAVYYGAAYQTYYARTELDYWGQGTLVTVSS | high polyreactivity
23 | QVQLVESGGGLVQAGGSLRLSCAASGLIFVVYAMGWYRQAPGKERELVAAISRSGGRTYYADSVKGRFTISRDNAKNTVYLQMNSLKPEDTAVYYCAARRYSTTFGRLFDYWGQGTQVTVSS | high polyreactivity
24 | QVQLVESGAGIVQAGGSLRLSCAASGSILWHNAMGWYRQAPGKEREYVDAISARGTRTYYADSVKGRFTISRDNAKNTVYLQLKSLNPEDTAVYYCAARYWDDRARAEDYWGQVTQVTVSS | high polyreactivity
25 | QVQLVESGGGLVQAGGSLRLSCAASGFTFRYNAMGWYRQAPGKERELVAAITNGGSTYADSVKGRFTISRDNAKNTVYLQMNSLKPEDTAVYYCAADYFVLTYYLWCYSPYKSFYYWGQGTQVTVSS | low polyreactivity
26 | QVQLVESGGGLVQEGGSLRLSCAASGSIFRYYAMGWYRQAPGKERELVAVITRGGSTYYADSVKGRFTISRDNAKNTVYLQMNSLKPEDTAVYYCAAEDYVIGDSGYDYWGQGTQVTVSS | low polyreactivity
27 | QDQLVESGGGLVQAGGSLRLSCAASGFIIQCNAMGWYRQAPGKERELVAAISSSVSTYYADSVKGRFTISRDNAKNTVYLQMNSLKPEDTAVYYCNAGFPLSLWLGDYWGQGTQVTVSS | low polyreactivity
28 | QVQLVESGGGLVQAGGSLRLSCAASGRIFYYYAMGLYRQAPGKERELVAAISGSGGTTYNADSVKGRITISRDHAKNTVYLQMNSLKPEDTAVYYCAEVQYRYAREYYYWGQCTQVTVSS | high polyreactivity
29 | QVQLVESGGGLVQAGGSLRLSCAASGSTFDINAMGWYRQAPGKERELVAAITDSGGSTHYADSVKGRFTISRDNAKNTVSLQMNSLKPEDTAVYYCNADDYLVYAGSHYGYWGQGTQVTVSS | low polyreactivity
30 | QVQLVESGGGLVQAGGSLRLSCAASGRIFVFYAMGWYRQAPGKERELVAAISKSVGPTYYADSVKGRFTISRDTAKNTVYLQMNSLKPADTAGYYCNKRSASDLWPQYGYWGQGTQVTVSS | low polyreactivity
31 | QVQLVESGGGLVQAGGSLRLSCAASGITFTSYAMGWYRQAPGKERELVAAISSSGVRTYYADSVKGRFTISRDYAKNTVYLQMKSLKPEDTAVYYCATRRRVLYGYDYWGQGTQVTVSS | high polyreactivity
